# Key:
# [1] = test system: IL-1 induction of IL-8 in U937 cells; assay: Inhibition of IL-1 induction of IL-8 in U937 cells; format: cell-based; settings: based on several in vitro efficacy assays as well as Biacore assays
# Protocol: GG-TripV-IL-1ra (Trip V-IL1Ra), GG-TripK-IL-1ra (Trip K-IL1Ra), GG-TripT-IL-1ra (Trip T-IL1Ra) and CII-H6-GrB-GG-TripT-IL-1ra (Trip Q-IL1Ra) were further analysed for their ability to inhibit IL-1 induction of IL-8 in U937 cells.
# Due to buffer effects in the assay, at the highest protein concentration used (100 μg/mL) IL-8 production increases instead of further decreasing. Based on several in vitro efficacy assays as well as Biacore assays, it was determined that TripT IL1Ra was the best compound based on blocking and binding efficacy as well as production yields.
# Three of the trimeric IL1Ra polypeptides described in the previous examples were chosen for pharmacokinetic analysis. The differences in the constructs were in the N-terminus of the trimerization domain: full length (FL), first nine amino acids truncated (I10) and the first 16 amino acids truncated (V17). The 10 construct represents a naturally occurring deletion variant of the trimerization domain and lacks the O-glycosylation site at Thr 4. The V17 derivative represents a deletion of the first exon encoding the trimerization domain and lacks a characterized heparin binding site. This site is also partially removed in the I10 construct.
# [2] = Pharmacokinetic analysis of trimeric IL1Ra proteins in male Lewis rats after i.v. injection (plasma ELISA); format: in vivo; settings: for AUC / AUC protein/AUC KINERET ® / Half life / Half life protein/Half life KINERET ® / relative increase in AUC compared to KINERET: rat, in vivo, iv, 100 mg/kg; for half life after i.v. injection: single i.v. dose 100 mg/kg
# Protocol: The pharmacokinetic profile of these three constructs polypeptides were analysed in Lewis rats after intravenous (i.v.) injections. The profiles obtained were compared to the pharmacokinetic profile of KINERET® in the same experiment. The pharmacokinetic study was conducted using four male Lewis rats per group, and the constructs that were used were FL IL-1Ra, I10 IL-1Ra, V17 IL-1Ra and KINERET®, Single i.v. doses of 100 mg/kg were given to the animals. The test compound was dissolved in vehicle (4.4 mM NaCitrate, pH 6.5, 93.8 mM NaCl, 0.33 mM EDTA, 0.7 g TWEEN®-80) and administered through the tail vein (vena sacralis media) or the hind paw vein (vena saphena).
# Blood was then collected from four animals per time-point at baseline (zero hours) and 0.5, 1, 2, 4, 8, 12, 24, 48, 72 h post dosing. Blood samples of approximately 100 μl were collected from the tip of the tails in Microtainers™. Plasma was collected and transferred into polypropylene tubes. Plasma samples were then stored at <−70° C. until measurements were performed. Animals were then sacrificed by CO2 inhalation and the carcasses were discarded without pathological examination. The IL-1Ra compound levels and KINERET® levels in plasma were then determined by ELISA.
# The average body weight of each rat was 250 grams. Assuming that the rat average blood volume was 16.5 mL a theoretical maximum initial concentration of the compounds of 1,500,000 ng/mL was calculated after i.v. injection. This starting level was used as starting value for the analysis. No observations of side effects or changes in animal well being were observed.
# Following blood sampling at the above indicated time points, an ELISA assay was used to measure the injected protein in the blood samples. Based on these ELISA results, area under the curve (AUC) was used as a measure of drug exposure and the plasma half life were calculated using standard software.
# STZ-induced diabetes = assay: Streptozocin (STZ)-induced diabetes model; format: in vivo, C57BL/6J male mice; settings: for reduction of blood glucose levels: daily i.p. dosing at both 100 and 30 mg/kg, FIG. 12
# Protocol: STZ (Sigma Aldrich) was administered once daily for five successive days at 50 mg/kg i.p. to fasted C57BL/6J male mice. The mice gradually developed higher levels of blood glucose from Day 1 to Day 4. The levels rose from […] during the STZ induction period. Five days (Day 4) after the last STZ dosing, the mice were randomly distributed into 10 treatment groups each containing 10 mice in good condition. Treatment started on this day, before onset of diabetes and continued beyond the onset.
# The study period was 28 days and the mice were weighed once weekly during the treatment period. Blood glucose levels were measured every other day during the study period in order to monitor development of diabetes. A droplet of whole blood was collected by tail vein bleeding and placed on an Ascensia ELITE® blood glucose test strip and analyzed with an Ascensia ELITE® blood glucose meter (Bayer). The values were recorded, and x-fold increase in any given group compared to levels at treatment initiation was calculated. Clinical symptoms were observed daily or as appropriate in groups where adverse symptoms occurred.
# [3] = in vivo; cited from earlier work
# [4] = test system: type II collagen arthritis; format: in vivo, Female Lewis rats
# Protocol: Female Lewis rats with 4-day established type II collagen arthritis were treated subcutaneously (SC), daily (QD) on arthritis days 1-3 with Vehicle (10 mM phosphate buffer pH 7.4), or equimolar amounts of IL-1ra administering either monomeric IL-1ra (100 mg/kg KINERET®), or trimerized IL1ra (120 mg/kg Met-I10-TripT-IL1ra, or 120 mg/kg GG-V17-TripT-IL1ra). In order to have only one set of controls, all rats in the QD groups were dosed with the respective vehicle (10 mM phosphate buffer pH 7.4, or sodium citrate buffer pH 6.5 for KINERET®) at the 2nd and 3rd dosings to keep manipulations constant. Animals were terminated on arthritis day 4. Efficacy evaluation was based on ankle caliper measurements, expressed as area under the curve (AUC), terminal hind paw weights and body weights (Bendele et al 2000, Arthritis+Rheumatism 43:2648-2659). All animals survived to study termination. […] No vocalization occurred with any other injections.
# Animals (8/group for arthritis, 4/group for normal), housed 4/cage, were anesthetized with Isoflurane and received subcutaneous/intradermal (SC/ID) injections with 300 μl of Freund's Incomplete Adjuvant (Difco, Detroit, Mich.) containing 2 mg/ml bovine type II collagen (Elastin Products, Owensville, Mo.) at the base of the tail and 2 sites on the back on days 0 and 6. Dosing by subcutaneous route (QD at 24 hour intervals) was initiated on arthritis day 1 and continued through day 3.
# Rats were weighed on days 0-4 of arthritis, and caliper measurements of ankles were taken every day beginning on day 0 of arthritis (study day 9). After final body weight measurement, animals were euthanized, and hind paws were transected at the level of the medial and lateral malleolus and weighed (paired).
# [5] = SC QD days 1-3, 100 mg/kg KINERET, 120 mg/kg trimerized IL1ra, vs vehicle treated disease controls
Substance,blocking and binding efficacy [1],AUC [2] [µg·h/mL],AUC protein/AUC KINERET ® [2],Half life [2] [min],Half life protein/Half life KINERET ® [2],relative increase in AUC compared to KINERET [2],reduction of blood glucose levels (STZ-induced diabetes),blood glucose efficacy relative to daily dosing of 100 mg/kg KINERET (STZ-induced diabetes; twice weekly i.p. dosing of 100 mg/kg),half life in humans [3] [min],"Change in body weight increased toward normal [4, 5] [%]","Reduction of ankle diameter AUC [4, 5] [%]","Reduction of final paw weight [4, 5] [%]","vocalization during the injection process (subcutaneous irritation) ([4]; rat, in vivo, sc)",half life after i.v. injection [2]
"FL IL1Ra: trimeric IL1Ra polypeptide with full length (FL) trimerization domain, TripT fusion to IL-1Ra (SEQ ID NO: 24)",best compound,809.292,1.89,20,17,two-fold,,,,,,,,
"I10 IL1Ra: trimeric IL1Ra polypeptide, first nine amino acids of the trimerization domain truncated (I10), TripT fusion (SEQ ID NO: 28)",,1637.866,3.82,54,45,,marked reduction,equally effective,,,,,,
KINERET®: monomeric IL-1ra [reference compound],,428.414,1,1.2,1,,marked reduction,,240 to 360,54,34,61,vocalized during the injection process,about 1.2 minutes
"V17 IL1Ra: trimeric IL1Ra polypeptide, first 16 amino acids of the trimerization domain truncated (V17), TripT fusion (SEQ ID NO: 32)",,2177.781,5.08,69,58,five-fold,,,,,,,,about 69 minutes

# — patent US20100028995A1, “Tetranectin Trimerizing Polypeptides” (Anaphore, Inc., priority 2004, published 2010)
